In patent US20250135018A1:
One block for each molecule: values may come before it.

Experiments:
Test in all cases: cell-based or functional assay
[1] = molecular target: CD48 (UniProt P09326)
[2] = molecular target: NTB-A (UniProt Q96DU3)
[3] = molecular target: T1, CD70 (UniProt P32970)
T1 sequence (looked up): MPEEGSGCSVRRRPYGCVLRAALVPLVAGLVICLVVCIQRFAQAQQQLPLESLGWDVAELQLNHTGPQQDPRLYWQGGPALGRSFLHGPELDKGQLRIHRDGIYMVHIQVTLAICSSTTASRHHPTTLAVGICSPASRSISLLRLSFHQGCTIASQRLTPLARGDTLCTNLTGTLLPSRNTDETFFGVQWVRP

CD48, sequence (P09326 27-220 limits assumed): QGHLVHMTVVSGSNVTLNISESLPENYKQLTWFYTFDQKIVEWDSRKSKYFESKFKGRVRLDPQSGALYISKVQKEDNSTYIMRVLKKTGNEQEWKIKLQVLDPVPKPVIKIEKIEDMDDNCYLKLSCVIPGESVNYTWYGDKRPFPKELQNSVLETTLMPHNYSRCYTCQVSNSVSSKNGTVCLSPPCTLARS
NTB-A, sequence (Q96DU3 22-332 limits assumed): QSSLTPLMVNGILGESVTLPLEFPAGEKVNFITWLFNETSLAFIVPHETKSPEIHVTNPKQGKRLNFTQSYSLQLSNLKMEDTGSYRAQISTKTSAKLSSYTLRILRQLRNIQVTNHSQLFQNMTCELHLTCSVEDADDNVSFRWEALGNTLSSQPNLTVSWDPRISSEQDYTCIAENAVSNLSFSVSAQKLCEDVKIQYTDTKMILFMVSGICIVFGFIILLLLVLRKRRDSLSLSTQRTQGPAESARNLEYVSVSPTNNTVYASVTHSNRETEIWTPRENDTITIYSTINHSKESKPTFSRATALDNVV

B1: Ag3-Ex_4-1: h1F6 anti-CD70 antibody conjugated to MP-PEG4-Val-Lys-Gly-7-MAD-MDCPT, DAR=8 (antibody, INN chains, looked up, V domains shown)
VH: QVQLVQSGAEVKKPGASVKVSCKASGYTFTNYGMNWVRQAPGQGLKWMGWINTYTGEPTYADAFKGRVTMTRDTSISTAYMELSRLRSDDTAVYYCARDYGDYGMDYWGQGTTVTVSS
VL: DIVMTQSPDSLAVSLGERATINCRASKSVSTSGYSFMHWYQQKPGQPPKLLIYLASNLESGVPDRFSGSGSGTDFTLTISSLQAEDVAVYYCQHSREVPWTFGQGTKVEIK
modifications: MP-PEG4-Val-Lys-Gly-MDCPT conjugate, DAR 8
IC50 of cell growth (CellTiter-Glo, 96 h), 786-O cells [3]: 0.037 µg/mL | IC50 of cell growth (CellTiter-Glo, 96 h), Caki-1 cells [3]: 0.036 µg/mL | IC50 of cell growth (CellTiter-Glo, 96 h), Raji cells [3]: 1.13 µg/mL | IC50 of cell growth (CellTiter-Glo, 96 h), UM-RC-3 cells [3]: 0.016 µg/mL | percent cells remaining at highest concentration tested, 786-O cells [3]: 18% | percent cells remaining at highest concentration tested, Caki-1 cells [3]: 24% | percent cells remaining at highest concentration tested, Raji cells [3]: 45% | percent cells remaining at highest concentration tested, UM-RC-3 cells [3]: 30%

B2: Ag3-Ex_8-1a: h1F6 anti-CD70 antibody conjugated to MC-GGFG-NHCH2-DXd(1), DAR=8 (antibody, INN chains, looked up, V domains shown)
VH: B1 VH
VL: B1 VL
modifications: MC-GGFG-DXd conjugate, DAR 8
IC50 of cell growth (CellTiter-Glo, 96 h), 786-O cells [3]: > 10 µg/mL | IC50 of cell growth (CellTiter-Glo, 96 h), Caki-1 cells [3]: > 10 µg/mL | IC50 of cell growth (CellTiter-Glo, 96 h), Raji cells [3]: 5.56 µg/mL | IC50 of cell growth (CellTiter-Glo, 96 h), UM-RC-3 cells [3]: 0.065 µg/mL | percent cells remaining at highest concentration tested, 786-O cells [3]: 54% | percent cells remaining at highest concentration tested, Caki-1 cells [3]: 68% | percent cells remaining at highest concentration tested, UM-RC-3 cells [3]: 40%

Second part, the molecule after the results:

IC50 of cell growth (CellTiter-Glo, 96 h), EJM cells [1]: 0.053 µg/mL | IC50 of cell growth (CellTiter-Glo, 96 h), KMM-1 cells [1]: 0.018 µg/mL | IC50 of cell growth (CellTiter-Glo, 96 h), MM.1R cells [1]: 0.004 µg/mL | IC50 of cell growth (CellTiter-Glo, 96 h), NCI-H929 cells [1]: 0.006 µg/mL | IC50 of cell growth (CellTiter-Glo, 96 h), U-266 cells [1]: 0.017 µg/mL | percent cells remaining at highest concentration tested, EJM cells [1]: 27% | percent cells remaining at highest concentration tested, KMM-1 cells [1]: 16% | percent cells remaining at highest concentration tested, MM.1R cells [1]: 1% | percent cells remaining at highest concentration tested, NCI-H929 cells [1]: 2% | percent cells remaining at highest concentration tested, U-266 cells [1]: 38%
Molecule: Ag4-Ex_4-1: hMEM102 anti-CD48 antibody conjugated to MP-PEG4-Val-Lys-Gly-7-MAD-MDCPT, DAR=8

IC50 of cell growth (CellTiter-Glo, 96 h), EJM cells [1]: 2.79 µg/mL | IC50 of cell growth (CellTiter-Glo, 96 h), KMM-1 cells [1]: 0.075 µg/mL | IC50 of cell growth (CellTiter-Glo, 96 h), MM.1R cells [1]: 0.009 µg/mL | IC50 of cell growth (CellTiter-Glo, 96 h), NCI-H929 cells [1]: 0.009 µg/mL | IC50 of cell growth (CellTiter-Glo, 96 h), U-266 cells [1]: > 10 µg/mL | percent cells remaining at highest concentration tested, EJM cells [1]: 0% | percent cells remaining at highest concentration tested, KMM-1 cells [1]: 34% | percent cells remaining at highest concentration tested, MM.1R cells [1]: 0% | percent cells remaining at highest concentration tested, NCI-H929 cells [1]: 3%
Molecule: Ag4-Ex_8-1a: hMEM102 anti-CD48 antibody conjugated to MC-GGFG-NHCH2-DXd(1), DAR=8

IC50 of cell growth (CellTiter-Glo, 96 h), EJM cells [2]: 0.15 µg/mL | IC50 of cell growth (CellTiter-Glo, 96 h), KMM-1 cells [2]: 0.177 µg/mL | IC50 of cell growth (CellTiter-Glo, 96 h), MM.1R cells [2]: 0.005 µg/mL | IC50 of cell growth (CellTiter-Glo, 96 h), NCI-H929 cells [2]: 0.08 µg/mL | IC50 of cell growth (CellTiter-Glo, 96 h), U-266 cells [2]: 0.097 µg/mL | percent cells remaining at highest concentration tested, EJM cells [2]: 31% | percent cells remaining at highest concentration tested, KMM-1 cells [2]: 16% | percent cells remaining at highest concentration tested, MM.1R cells [2]: 0% | percent cells remaining at highest concentration tested, NCI-H929 cells [2]: 2% | percent cells remaining at highest concentration tested, U-266 cells [2]: 28%
Molecule: Ag5-Ex_4-1: h20F3 anti-NTB-A antibody conjugated to MP-PEG4-Val-Lys-Gly-7-MAD-MDCPT, DAR=8

IC50 of cell growth (CellTiter-Glo, 96 h), EJM cells [2]: 7.19 µg/mL | IC50 of cell growth (CellTiter-Glo, 96 h), KMM-1 cells [2]: 5.29 µg/mL | IC50 of cell growth (CellTiter-Glo, 96 h), MM.1R cells [2]: 0.177 µg/mL | IC50 of cell growth (CellTiter-Glo, 96 h), NCI-H929 cells [2]: 2.93 µg/mL | IC50 of cell growth (CellTiter-Glo, 96 h), U-266 cells [2]: > 10 µg/mL | percent cells remaining at highest concentration tested, KMM-1 cells [2]: 45%
Molecule: Ag5-Ex_8-1a: h20F3 anti-NTB-A antibody conjugated to MC-GGFG-NHCH2-DXd(1), DAR=8
